Assay results: patent US20250152743A1, “SYNPOPTOSIS CIRCUITS FOR PROGRAMMABLE CELL DEATH CONTROL” (California Institute of Technology, priority 2023, published 2025)

Test: Engineered Casp3 variants without input protease and with Ras sensor protease
Conditions: without an input protease
Experimental: In this experiment, we tested the wild-type TEVP activatable Casp3 protein against the engineered Casp3 variants (v2.1 and v2.2) as described above. Each Casp3 variant was tested without an input protease and with a Ras sensor protease.

B1: Caspase3_v2.1: nHalo-tevs-Casp3te-tevs-cHalo-CAAX; SEQ ID NO: 44 (protein)
chain: MEIGTGFPFDPHYVEVLGERMHYVDVGPRDGTPVLFLHGNPTSSYVWRNIIPHVAPGSENLYFQSGSENTENSVDSKSIKNLEPKIIHGSESMDSGISLDNSYKMDYPEMGLCIIINNKNFHKSTGMTSRSGTDVDAANLRETFRNLKYEVRNKNDLTREEIVELMRDVSKEDHSKRSSFVCVLLSHGEEGIIFGTNGPVDLKKITNFFRGDRCRSLTGKPKLFIIQACRGTELDCGIETENLYFQSGVDDDMACHKIPVEADFLYAYSTAPGYYSWRNSKDGSWFIQSLCAMLKQYADKLEFMHILTRVNRKVATEFESFSFDATFHAKKQIPCIVSMLTKELYFYHSTGSENLYFQSGSTHRCIAPDLIGMGKSDKPDLGYFFDDHVRFMDAFIEALGLEEVVLVIHDWGSALGFHWAKRNPERVKGIAFMEFIRPIPTWDEWPEFARETFQAFRTTDVGRKLIIDQNVFIEGTLPMGVVRPLTEVEMDHYREPFLNPVDREPLWRFPNELPIAGEPANIVALVEEYMDWLHQSPVPKLLFWGTPGVLIPPAEAARLAKSLPNCKAVDIGPGLNLLQEDNPDLIGSEIARWLSTLEISGGSSGGGGRSKLNPPDESGPGCMSCKCVLS
In the case of B1, the “background (TEVP-independent) cell death / Casp3 activation” value is reported as “making TEVP-independent Casp3 activation less likely” and the “background (TEVP-independent) cell death / Casp3 activation” value (listed as v2.1) is reported as “reduced to statistically non-significant amounts”.

B2: Caspase3_v2.2: nCasp3-tevs-nHalo-tevs-cHalo-tevs-cCasp3-CAAX; SEQ ID NO: 45 (protein)
chain: MENTENSVDSKSIKNLEPKIIHGSESMDSGISLDNSYKMDYPEMGLCIIINNKNFHKSTGMTSRSGTDVDAANLRETFRNLKYEVRNKNDLTREEIVELMRDVSKEDHSKRSSFVCVLLSHGEEGIIFGTNGPVDLKKITNFFRGDRCRSLTGKPKLFIIQACRGTELDCGIETENLYFQSEIGTGFPFDPHYVEVLGERMHYVDVGPRDGTPVLFLHGNPTSSYVWRNIIPHVAPENLYFQSTHRCIAPDLIGMGKSDKPDLGYFFDDHVRFMDAFIEALGLEEVVLVIHDWGSALGFHWAKRNPERVKGIAFMEFIRPIPTWDEWPEFARETFQAFRTTDVGRKLIIDQNVFIEGTLPMGVVRPLTEVEMDHYREPFLNPVDREPLWRFPNELPIAGEPANIVALVEEYMDWLHQSPVPKLLFWGTPGVLIPPAEAARLAKSLPNCKAVDIGPGLNLLQEDNPDLIGSEIARWLSTLEISENLYFQSGVDDDMACHKIPVEADFLYAYSTAPGYYSWRNSKDGSWFIQSLCAMLKQYADKLEFMHILTRVNRKVATEFESFSFDATFHAKKQIPCIVSMLTKELYFYHSTGGSSGGGGRSKLNPPDESGPGCMSCKCVLS
For B2, the “background (TEVP-independent) cell death / Casp3 activation” value was “background Casp3 activation is reduced” and the “background (TEVP-independent) cell death / Casp3 activation” value (listed as v2.2) was “reduced to statistically non-significant amounts”.
